Experimental data published in the supplement of paper PMC9112550, “Optimization of the antimicrobial peptide Bac7 by deep mutational scanning” (BMC Biology, 2022).

tested on: Escherichia coli TOP10; test: shrunken log2 fold change of peptide-encoding DNA abundance (4.5 h post-induction vs induction); higher = less antimicrobial activity (less host growth inhibition); details: time post-induction: 4.5 h; library: site-saturation at positions 5, 18, 19, 20
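Note: peptides expressed intracellularly from a pBAD plasmid library in pooled LB shake-flask culture, induced with 0.3% L-arabinose, DNA abundance read by NGS, three biological replicates, DESeq2 with apeglm shrinkage.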

Sequence	shrunken log2 fold change
RRIRQRPPRLPRPRPRPLDCPRP	-0.221
RRIRVRPPRLPRPRPRPLAIPRP	0.0184
RRIRLRPPRLPRPRPRPDLCPRP	0.307
RRIRTRPPRLPRPRPRPDMPPRP	-0.064
RRIRHRPPRLPRPRPRPGFCPRP	-0.0484
RRIRTRPPRLPRPRPRPNEEPRP	-0.0204
RRIRWRPPRLPRPRPRPINRPRP	-0.328
RRIRCRPPRLPRPRPRPRAHPRP	0.361
RRIRCRPPRLPRPRPRPTVLPRP	-0.174
RRIRERPPRLPRPRPRPTSHPRP	-0.239
RRIRMRPPRLPRPRPRPSKIPRP	-0.0332
RRIRDRPPRLPRPRPRPCEHPRP	-0.133
RRIRYRPPRLPRPRPRPLKEPRP	0.0179
RRIRWRPPRLPRPRPRPHQYPRP	-0.29
RRIRLRPPRLPRPRPRPPPVPRP	0.98
RRIRGRPPRLPRPRPRPTWYPRP	0.159
RRIRLRPPRLPRPRPRPYQLPRP	-0.253
RRIRRRPPRLPRPRPRPKIKPRP	-0.0183
RRIRCRPPRLPRPRPRPQQVPRP	-0.29
RRIRERPPRLPRPRPRPIHYPRP	-0.0107
RRIRERPPRLPRPRPRPNWWPRP	0.196
RRIRCRPPRLPRPRPRPTTSPRP	-0.0643
RRIRERPPRLPRPRPRPESWPRP	0.343
RRIRRRPPRLPRPRPRPVDAPRP	0.804
RRIRFRPPRLPRPRPRPGYAPRP	-0.0137

Sequence	shrunken log2 fold change
RRIRNRPPRLPRPRPRPMCRPRP	-0.0579
RRIRWRPPRLPRPRPRPDTEPRP	0.14
RRIRFRPPRLPRPRPRPKLEPRP	-0.0492
RRIRTRPPRLPRPRPRPQMAPRP	-0.177
RRIRQRPPRLPRPRPRPLGTPRP	0.139
RRIRQRPPRLPRPRPRPDLAPRP	-0.0142
RRIRIRPPRLPRPRPRPLAEPRP	-0.129
RRIRVRPPRLPRPRPRPEHTPRP	0.224
RRIRSRPPRLPRPRPRPDECPRP	0.0932
RRIRGRPPRLPRPRPRPKMYPRP	0.107
RRIRNRPPRLPRPRPRPWGDPRP	-0.0233
RRIRFRPPRLPRPRPRPQSKPRP	0.379
RRIRDRPPRLPRPRPRPNPNPRP	-0.136
RRIRARPPRLPRPRPRPWDMPRP	0.187
RRIRKRPPRLPRPRPRPSFEPRP	0.000728
RRIRYRPPRLPRPRPRPAVLPRP	0.0447
RRIRRRPPRLPRPRPRPMKNPRP	0.298
RRIRDRPPRLPRPRPRPGQYPRP	-0.0267
RRIRMRPPRLPRPRPRPECFPRP	1.35
RRIRERPPRLPRPRPRPFAWPRP	0.143
RRIRCRPPRLPRPRPRPRVAPRP	0.293
RRIRERPPRLPRPRPRPSTFPRP	2.07
RRIRCRPPRLPRPRPRPVYRPRP	-0.445
RRIRMRPPRLPRPRPRPVCNPRP	-0.314
RRIRSRPPRLPRPRPRPCIVPRP	-1.05

Sequence	shrunken log2 fold change
RRIRHRPPRLPRPRPRPMCYPRP	0.118
RRIRLRPPRLPRPRPRPTELPRP	-0.118
RRIRYRPPRLPRPRPRPKYFPRP	-0.314
RRIRNRPPRLPRPRPRPSGQPRP	-0.188
RRIRDRPPRLPRPRPRPDGIPRP	-0.0113
RRIRDRPPRLPRPRPRPGIFPRP	0.0908
RRIRNRPPRLPRPRPRPYQRPRP	-0.0199
RRIRARPPRLPRPRPRPCYTPRP	-0.486
RRIRNRPPRLPRPRPRPCPYPRP	-0.0128
RRIRRRPPRLPRPRPRPHYHPRP	-0.35
RRIRMRPPRLPRPRPRPHQIPRP	-0.00201
RRIRQRPPRLPRPRPRPFMAPRP	-0.61
RRIRMRPPRLPRPRPRPKGKPRP	0.288
RRIRGRPPRLPRPRPRPIRKPRP	0.124
RRIRPRPPRLPRPRPRPNNKPRP	-0.542
RRIRERPPRLPRPRPRPQPGPRP	0.0699
RRIRARPPRLPRPRPRPEANPRP	1.69
RRIRHRPPRLPRPRPRPETTPRP	0.194
RRIRNRPPRLPRPRPRPISAPRP	-0.0545
RRIRCRPPRLPRPRPRPMVHPRP	-0.452
RRIRHRPPRLPRPRPRPSPNPRP	-0.302
RRIRPRPPRLPRPRPRPTPFPRP	0.269
RRIRWRPPRLPRPRPRPYTCPRP	-1.7
RRIRSRPPRLPRPRPRPWIFPRP	-0.14
RRIRRRPPRLPRPRPRPQGYPRP	-0.0842
